Results as given in article PMC6078464.

Molecular target: PEDV nsp15 (H241A) (PEDV FJZZ strain)
Test: AUC

## PEDV nsp15 (H241A) (enzyme)
  percentage as hexamer: 81.2%
